Laboratory results reported in patent US20040018971A1 (published 2004).

Experiments:
HLA-A*0201 [1] = target: T1, HLA-A*0201 (human); assay: competition with 125I-labelled standard peptide 941.01 for purified HLA, gel filtration
T1 construct: also called HLA-A2.1

HLA-B*5401 = HLA-B*5401 (human); assay: competition with 125I probe peptide, purified HLA
HLA-B*5101 = HLA-B*5101 (human); assay: competition with 125I probe peptide, purified HLA
HLA-B*3501 = HLA-B*3501 (human); assay: competition with 125I probe peptide, purified HLA
HLA-B*5301 = HLA-B*5301 (human); assay: competition with 125I probe peptide, purified HLA
HLA-B*0702 = HLA-B*0702 (human); assay: competition with 125I probe peptide, purified HLA
[2] = target: T2, HLA-A*0301 (purified HLA class I molecule) (human); assay: competition with 125I-labelled probe peptide for purified HLA-A*0301, gel filtration
T2 construct: also called HLA-A3

HLA-A*0201 [3] = target: T3, HLA-A*0201 (human); assay: inhibition of 125I-labelled standard peptide binding to purified HLA, gel filtration; ratio = IC50 of standard / IC50 of test peptide
T3 construct: also called HLA-A2.1

HLA-A*0201 [4] = target: T4, HLA-A*0201 (human); assay: competitive inhibition of 125I-labelled standard peptide binding to purified HLA, gel filtration
T4 construct: also called HLA-A2.1

Q: Which relative binding ratio (HLA-A*0201 [1]) does the source give for CVTACPYNYL (also called Her2/neu.295 (10-mer)) [HER2/neu peptide, position 295, 10 amino acids] here?
A: 0.0001 ratio (IC50 of standard peptide / IC50 of test peptide)

Q: FPTNASLSF (analog peptide) [Her2/neu.65.F1 (9-mer)] was tested. Which IC50 (HLA-B*5401) did it give?
A: 556 nM

Q: What about the IC50 (HLA-B*5101) of the same binder?
A: 85 nM

Q: What about the IC50 (HLA-B*3501) of the same binder?
A: 7.9 nM

Q: What about the IC50 (HLA-B*5301) of the same binder?
A: 6.2 nM

Q: What about the IC50 (HLA-B*0702) of the same binder?
A: 1.1 nM

Q: With FPTNASLSI (analog peptide) [Her2/neu.65.F1I9] as the binder, how does the IC50 (HLA-B*5401) read?
A: 2.8 nM

Q: And the IC50 (HLA-B*5101)?
A: 8.7 nM

Q: What about the IC50 (HLA-B*3501) of the same binder?
A: 300 nM

Q: What about the IC50 (HLA-B*5301) of the same binder?
A: 14 nM

Q: And the IC50 (HLA-B*0702)?
A: 4.6 nM

Q: For DIQEVQGYVL (also called Her2/neu.76 (10-mer)) [HER2/neu peptide, position 76, 10 amino acids], which relative binding ratio (HLA-A*0201 [1]) is on record?
A: 0.0001 ratio (IC50 of standard peptide / IC50 of test peptide)

Q: With ASCVTACPY [HER2/neu peptide, position 293, 9 amino acids (ASCVTACPY)] as the binder, how does the relative binding ratio [2] read?
A: 0.0008 ratio (IC50 of standard peptide / IC50 of test peptide)

B1: HER2/neu peptide, position 413, 10 amino acids (peptide)
peptide: SAWPDSLPDL
notes: T0022 prints L there and the analog Her2/neu.415.I8 implies a native L, so L is used
Q: Which relative binding ratio (HLA-A*0201 [3]) does the source give for B1 here?
A: 0.0002 ratio to standard peptide

Q: With PASPETHLDM (Synthetic peptide) [HER2/neu A02 supermotif peptide, position 36, 10 amino acids] as the binder, how does the “relative binding ratio (IC50 of standard peptide / IC50 of test peptide)” value (HLA-A*0201 [4]) read?
A: 0.0001 ratio

Q: FPGGLRELQI (analog peptide) [Her2/neu.133.F1I10] was tested. Which IC50 (HLA-B*5401) did it give?
A: 476 nM

Q: What about the IC50 (HLA-B*5101) of the same binder?
A: 1770 nM

Q: What about the IC50 (HLA-B*5301) of the same binder?
A: 310 nM

Q: And the IC50 (HLA-B*0702)?
A: 306 nM

Q: With FPMCKGSRCI (analog peptide) [Her2/neu.196.F1] as the binder, how does the IC50 (HLA-B*5401) read?
A: 303 nM

Q: What about the IC50 (HLA-B*5101) of the same binder?
A: 500 nM

Q: And the IC50 (HLA-B*5301)?
A: 6640 nM

Q: What about the IC50 (HLA-B*0702) of the same binder?
A: 183 nM

Q: With FPCARVCYGL (analog peptide) [Her2/neu.336.F1] as the binder, how does the IC50 (HLA-B*5401) read?
A: 36 nM

Q: And the IC50 (HLA-B*5101)?
A: 1000 nM

Q: What about the IC50 (HLA-B*3501) of the same binder?
A: 450 nM

Q: And the IC50 (HLA-B*5301)?
A: 1690 nM

Q: What about the IC50 (HLA-B*0702) of the same binder?
A: 190 nM

Q: With FPLNNTTPI (analog peptide) [Her2/neu.121.F1I9] as the binder, how does the IC50 (HLA-B*5401) read?
A: 1.6 nM

Q: And the IC50 (HLA-B*5101)?
A: 13 nM

Q: And the IC50 (HLA-B*3501)?
A: 200 nM

Q: And the IC50 (HLA-B*5301)?
A: 52 nM

Q: And the IC50 (HLA-B*0702)?
A: 1.6 nM

Q: Which results are given for FPLNNTTPV (analog peptide) [Her2/neu.121.F1]?
A: IC50 (HLA-B*5401): 1.1 nM; IC50 (HLA-B*5101): 7.1 nM; IC50 (HLA-B*3501): 40 nM; IC50 (HLA-B*5301): 1070 nM; IC50 (HLA-B*0702): 0.2 nM

Q: With RLRIVRGTQL [HER2/neu peptide, position 98, 10 amino acids] as the binder, how does the relative binding ratio (HLA-A*0201 [3]) read?
A: 0.0001 ratio to standard peptide

Q: CVARCPSGVK (also called Her2/neu.596 10-mer) [HER2/neu peptide, position 596, 10 amino acids (CVARCPSGVK)] was tested. Which relative binding ratio [2] did it give?
A: 0.022 ratio (IC50 of standard peptide / IC50 of test peptide)

Q: How did the relative binding ratio [2] turn out when CAGGCARCK (also called Her2/neu.220 9-mer) [HER2/neu peptide, position 220, 9 amino acids (CAGGCARCK)] was run?
A: -0.0002 ratio (IC50 of standard peptide / IC50 of test peptide)

Q: Which relative binding ratio (HLA-A*0201 [1]) does the source give for ALVTYNTDT (also called Her2/neu.270 (9-mer)) [HER2/neu peptide, position 270, 9 amino acids] here?
A: 0.0001 ratio (IC50 of standard peptide / IC50 of test peptide)

Q: For DIQEVQGYV (also called Her2/neu.76 (9-mer)) [HER2/neu peptide, position 76, 9 amino acids], which relative binding ratio (HLA-A*0201 [1]) is on record?
A: 0.0001 ratio (IC50 of standard peptide / IC50 of test peptide)

Q: With AVLDNGDPL (also called Her2/neu.115 (9-mer)) [HER2/neu peptide, position 115, 9 amino acids] as the binder, how does the relative binding ratio (HLA-A*0201 [1]) read?
A: 0.0004 ratio (IC50 of standard peptide / IC50 of test peptide)

Q: DLGMGAAKGL (also called Her2/neu.1089 (10-mer)) [HER2/neu peptide, position 1089, 10 amino acids] was tested. Which relative binding ratio (HLA-A*0201 [1]) did it give?
A: 0.0001 ratio (IC50 of standard peptide / IC50 of test peptide)

Q: For ALESILRRR (also called Her2/neu.890 9-mer) [HER2/neu peptide, position 890, 9 amino acids (ALESILRRR)], which relative binding ratio [2] is on record?
A: 0.0013 ratio (IC50 of standard peptide / IC50 of test peptide)

Q: CVARCPSGV (also called Her2/neu.596 (9-mer)) [HER2/neu peptide, position 596, 9 amino acids] was tested. Which relative binding ratio (HLA-A*0201 [1]) did it give?
A: 0.0004 ratio (IC50 of standard peptide / IC50 of test peptide)

Q: What does the source list for MPNPEGRYTI (analog peptide) [Her2/neu.282.I10]?
A: IC50 (HLA-B*5401): 46 nM; IC50 (HLA-B*5101): 13 nM; IC50 (HLA-B*3501): 111 nM; IC50 (HLA-B*5301): 9.3 nM; IC50 (HLA-B*0702): 34 nM

Q: For FPNPEGRYTI (analog peptide) [Her2/neu.282.F1], which IC50 (HLA-B*5401) is on record?
A: 3.2 nM

Q: What about the IC50 (HLA-B*5101) of the same binder?
A: 9.3 nM

Q: And the IC50 (HLA-B*3501)?
A: 24 nM

Q: And the IC50 (HLA-B*5301)?
A: 6.6 nM

Q: And the IC50 (HLA-B*0702)?
A: 324 nM

Q: With ASPLDSTFY [HER2/neu peptide, position 997, 9 amino acids (ASPLDSTFY)] as the binder, how does the relative binding ratio [2] read?
A: 0.0002 ratio (IC50 of standard peptide / IC50 of test peptide)

Q: Which results are given for FPHQALLHTA (analog peptide) [Her2/neu.488.F1]?
A: IC50 (HLA-B*5401): 1.3 nM; IC50 (HLA-B*5101): 4230 nM; IC50 (HLA-B*3501): 379 nM; IC50 (HLA-B*0702): 393 nM

Q: Which IC50 (HLA-B*5401) does the source give for FPHQALLHTI (analog peptide) [Her2/neu.488.F1I10] here?
A: 4 nM

Q: What about the IC50 (HLA-B*5101) of the same binder?
A: 19 nM

Q: What about the IC50 (HLA-B*3501) of the same binder?
A: 655 nM

Q: What about the IC50 (HLA-B*5301) of the same binder?
A: 42 nM

Q: What about the IC50 (HLA-B*0702) of the same binder?
A: 86 nM

Q: DIFHKNNQL (also called Her2/neu.171 (9-mer)) [HER2/neu peptide, position 171, 9 amino acids] was tested. Which relative binding ratio (HLA-A*0201 [1]) did it give?
A: 0.0002 ratio (IC50 of standard peptide / IC50 of test peptide)

Q: With SLRELGSGL [HER2/neu peptide, position 457, 9 amino acids] as the binder, how does the relative binding ratio (HLA-A*0201 [3]) read?
A: 0.0002 ratio to standard peptide

Q: Which relative binding ratio (HLA-A*0201 [3]) does the source give for TIDVYMIMV [HER2/neu peptide, position 948, 9 amino acids] here?
A: 0.0005 ratio to standard peptide

Q: SVFQNLQVI [HER2/neu peptide, position 423, 9 amino acids] was tested. Which relative binding ratio (HLA-A*0201 [3]) did it give?
A: 0.0017 ratio to standard peptide
